From patent US20240011101A1, “METHOD OF DETERMINING RESISTANCE TO CHECKPOINT INHIBITOR THERAPIES” (Shattuck Labs, Inc., priority 2020, published 2024)

Tests used:
wild type CT26 cells = assay: RNA-seq gene expression (TPM) of wild type CT26 cells cultured with or without IFNγ; assay type: cell-based; details: 20 ng/mL mouse IFNγ, 24 hours, vs without IFNγ
Procedure: (§1) Three distinct vials of parental CT26 cells (ATCC; “experimental replicates”), two independently isolated tumors from “2nd round” mice, four independently isolated tumors from “4th round” mice (both “biological replicates”) were cultured with or without 20 ng/mL of mouse IFNγ (Biolegend) for 24 hours at […]. The following day, RNA was isolated from cells using Qiagen RNeasy reagents according to manufacturer's instructions, including QIASHREDDER homogenization and on-column DNaseI digestion. Isolated RNA was subjected to RNA-seq and data analysis. Briefly, sequencing libraries were generated and sequenced on an ILLUMINA HISEQ (2×150 paired end reads), targeting >20×10^6 reads per sample. Sequences were trimmed using TRIMMOMATIC v.0.36 and mapped to the Mus musculus GRCm38 reference genome using the STAR ALIGNER v.2.5.2b. Unique gene hit counts were calculated by using FEATURECOUNTS from the SUBREAD package v.1.5.2. Only unique reads that fell within exon regions were counted. Differential gene expression was determined using DESeq2, and the Wald test was used to generate p-values and log 2 fold changes; with log 2 fold change >1 and adjusted p-values <0.05 as cutoffs for significance.
Next, the effect of IFNγ on the expression of certain genes that are differentially expressed in the 4th generation anti-PD-1 resistant cells compared to the wild type CT26 cells was studied. Briefly, the parental CT26 cells, second generation anti-PD-1 resistant cells and 4th generation anti-PD-1 resistant cells were cultured with or without 20 ng/mL of mouse IFNγ (Biolegend) for 24 hours at 37° C./[…]. The following day, RNA was isolated from cells using Qiagen RNeasy reagents according to manufacturer's instructions, including QIASHREDDER homogenization and on-column DNaseI digestion. Isolated RNA was subjected to RNA-seq and data analysis. Briefly, sequencing libraries were generated and sequenced on an ILLUMINA HISEQ (2×150 paired end reads), targeting >20×10^6 reads per sample. Sequences were trimmed using TRIMMOMATIC v.0.36 and mapped to the Mus musculus GRCm38 reference genome using the STAR ALIGNER v.2.5.2b. Unique gene hit counts were calculated by using FEATURECOUNTS from the SUBREAD package v.1.5.2. Only unique reads that fell within exon regions were counted. Differential gene expression was determined using DESeq2, and the Wald test was used to generate p-values and log 2 fold changes; with log 2 fold change >1 and adjusted p-values <0.05 as cutoffs for significance.

[1] = test system: 4th generation anti-PD-1 resistant cells; assay: RNA-seq gene expression (TPM) of 4th generation anti-PD-1 resistant CT26 cells cultured with or without IFNγ; assay type: cell-based, Mus musculus
Procedure: as §1
Next the transcriptomic profile of the 2nd and 4th generation anti-PD-1 resistant cell lines was studied by comparison with each other and with an anti-PD-1 primarily resistant cell line. The B16.F10 murine melanoma tumor cell line was used as a model of anti-PD-1 “primary resistance,” as these tumors are not responsive to anti-PD-1 therapy. Three distinct vials of parental CT26 cells (ATCC; “experimental replicates”), two independently isolated tumors from “2nd round” mice, four independently isolated tumors from “4th round” mice (both “biological replicates”), and two distinct vials of parental B16.F10 cells (ATCC; “experimental replicates were cultured with or without 20 ng/mL of mouse IFNγ (Biolegend) for 24 hours at 37° C./5% CO2 to assess in vitro responsiveness. This mimics how tumor cells respond in vivo, as immune cell infiltrate and secrete effector cytokines like IFNγ. The following day, RNA was isolated from cells using Qiagen RNeasy reagents according to manufacturers instructions, including QIASHREDDER homogenization and on-column DNaseI digestion. Isolated RNA was subjected to RNA-seq and data analysis. Briefly, sequencing libraries were generated and sequenced on an ILLUMINA HISEQ (2×150 paired end reads), targeting >20×10^6 reads per sample. Sequences were trimmed using TRIMMOMATIC v.0.36 and mapped to the Mus musculus GRCm38 reference genome using the STAR ALIGNER v.2.5.2b. Unique gene hit counts were calculated by using FEATURECOUNTS from the SUBREAD package v.1.5.2. Only unique reads that fell within exon regions were counted. Differential gene expression was determined using DESeq2, and the Wald test was used to generate p-values and log 2 fold changes; with log 2 fold change >1 and adjusted p-values <0.05 as cutoffs for significance. The DEGs were identified between untreated and IFNγ treated parental CT26. As shown in FIG. 4A (Left Panel), Log 2 fold-change was plotted in the heatmap and genes are hierarchical clustered based on parental CT26. Of these, 338 genes had usable data from the other datasets; and those values are shown in the other columns (FIG. 4A (Left Panel)). Genes separated into 3 major clusters (FIG. 4A (Left Panel)). Associated genes were input into PANTHER to identify pathways associated with the dysregulated genes and the GO pathways associated with the DEGs were identified. As shown in FIG. 4A (Right Panel), the upregulation of expression of the genes associated with following GO pathways was enriched in 2nd generation cells and 4th generation cells compared to both parental CT26 cells and B16.F10 cells: L-phenyl alanine catabolic process, phospholipid efflux, tyrosine catabolic process, positive regulation of transcription from RNA polymerase II promoter in response to acidic pH, and drug export. […]

B1: IFNγ: mouse IFNγ (Biolegend), cytokine added to cell cultures at 20 ng/mL for 24 hours (protein, UniProt P01580 23-155, looked up)
Interferon gamma: HGTVIESLESLNNYFNSSGIDVEEKSLFLDIWRNWQKDGDMKILQSQIISFYLRLFEVLKDNQAISNNISVIESHLITTFFSNSKAKKDAFMSIAKFEVNNPQVQRQAFNELIRVVHQLLPESSLRKRKRSRC
increased: expression of Cd274 (PD-L1) (wild type CT26 cells; FIG. 5A) | expression of B2M (wild type CT26 cells; FIG. 5B) | expression of Trim7 (wild type CT26 cells; FIG. 5C) | expression of Lrg1 (wild type CT26 cells; FIG. 5D) | expression of Stat1 (wild type CT26 cells; FIG. 7A) | expression of Stat2 (wild type CT26 cells; FIG. 7B) | expression of Irf1 (wild type CT26 cells; FIG. 7C) | expression of Tap1 (wild type CT26 cells; FIG. 7D) | expression of Ccl5 (RANTES) (wild type CT26 cells; FIG. 9A) | expression of Cxcl10 (IP-10) (wild type CT26 cells; FIG. 9B) | expression of Ifnb1 (wild type CT26 cells; FIG. 9C)
overexpressed: expression of Trim7 ([1]; in response to IFNγ (20 ng/mL, 24 hours), FIG. 5C) | expression of Lrg1 ([1]; in response to IFNγ (20 ng/mL, 24 hours), FIG. 5D)
repressed: expression of CD274 ([1]; in the presence of IFNγ (20 ng/mL, 24 hours), FIG. 5A) | expression of B2m ([1]; in the presence of IFNγ (20 ng/mL, 24 hours), FIG. 5B) | expression of Stat1 ([1]; in the presence of IFNγ (20 ng/mL, 24 hours), FIG. 7A) | expression of Stat2 ([1]; in the presence of IFNγ (20 ng/mL, 24 hours), FIG. 7B) | expression of Irf1 ([1]; in the presence of IFNγ (20 ng/mL, 24 hours), FIG. 7C) | expression of Tap1 ([1]; in the presence of IFNγ (20 ng/mL, 24 hours), FIG. 7D) | expression of Ccl5 (RANTES) ([1]; in the presence of IFNγ (20 ng/mL, 24 hours), FIG. 9A) | expression of Cxcl10 (IP-10) ([1]; in the presence of IFNγ (20 ng/mL, 24 hours), FIG. 9B) | expression of Ifnb1 ([1]; in the presence of IFNγ (20 ng/mL, 24 hours), FIG. 9C)
downregulate: expression of type I and type II interferon genes (baseline hyperactivated) ([1]; CT26 anti-PD-1 resistant cells challenged with IFNγ (20 ng/mL, 24 hours), FIG. 4B)
